# Test results published in PMC9182242, “Copper Binding and Oligomerization Studies of the Metal Resistance Determinant CrdA from Helicobacter pylori” (Molecules, 2022).
# B1: CrdA protein from Helicobacter pylori (HpCrdA) (natural protein)
# chain: QTLKANDLEVKIKSVGNPIKGDNTFILSPTLKGKALEKAIVRVQFMMPEMPGMPAMKEMAQVSEKNGLYEAKTNLSMNGTWQVRVDIKSKEGQVYRAKTSLDL
# notes: predicted mass of the monomer ~12.4 kDa; Residues of the pGEX-6P-1 linker probably remain after PreScission cleavage (surmised); also called HP1326; apo-HpCrdA; source: E. coli BL21(DE3), purified (GSTrap, GST cleaved with PreScission protease, Superdex 75 SEC); not shown: GST, N-terminal, cleaved
# Target: the molecule itself
# Test: SEC; analytical SEC, Superose 12 10/300 GL, 20 mM Tris-base pH 7.5, 150 mM NaCl, 3.8 mM nOG; HpCrdA incubated with EDTA (metal chelated); monomer-dimer equilibrium
protein,measurement,value
B1,stoichiometry N,2
